# Test results from US20190328867A1 (EMORY UNIVERSITY, published 2019).
# Molecular target: T1, varicella-zoster virus glycoprotein H (varicella-zoster virus, UniProt P09260 18-841, limits assumed)
# T1 sequence (looked up): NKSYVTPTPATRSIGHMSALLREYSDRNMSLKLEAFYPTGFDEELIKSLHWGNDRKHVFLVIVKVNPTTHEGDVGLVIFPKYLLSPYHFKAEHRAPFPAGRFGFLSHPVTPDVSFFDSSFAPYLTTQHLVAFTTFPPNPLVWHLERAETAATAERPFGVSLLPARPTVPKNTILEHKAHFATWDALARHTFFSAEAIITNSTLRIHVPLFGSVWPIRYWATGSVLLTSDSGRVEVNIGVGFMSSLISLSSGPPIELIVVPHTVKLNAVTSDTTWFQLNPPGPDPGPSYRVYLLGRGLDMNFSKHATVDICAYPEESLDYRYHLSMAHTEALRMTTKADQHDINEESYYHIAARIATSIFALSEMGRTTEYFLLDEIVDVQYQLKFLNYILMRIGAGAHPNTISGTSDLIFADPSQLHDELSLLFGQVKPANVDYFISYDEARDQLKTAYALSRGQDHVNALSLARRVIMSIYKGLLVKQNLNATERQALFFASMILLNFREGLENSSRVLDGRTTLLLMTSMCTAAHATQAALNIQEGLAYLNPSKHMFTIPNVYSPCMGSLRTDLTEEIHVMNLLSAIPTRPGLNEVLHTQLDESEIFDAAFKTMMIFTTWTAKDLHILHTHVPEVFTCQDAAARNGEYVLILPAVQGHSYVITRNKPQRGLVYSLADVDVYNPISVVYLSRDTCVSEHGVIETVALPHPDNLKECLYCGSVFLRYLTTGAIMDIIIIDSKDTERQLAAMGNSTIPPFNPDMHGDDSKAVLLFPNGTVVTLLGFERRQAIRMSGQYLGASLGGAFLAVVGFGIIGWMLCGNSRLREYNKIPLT
# Assay: cell-based or functional assay
binder,measurement,value
"302-1G9 (antibody, IgG1, V domains shown) VH: QVQLVQSGAEVKKPGASVKVSCEAFGYTFSNYGFTWVRQAPGQGLEWMGWISASNANTKYGQKFRGRVTLTTDTSTSTAYMELRNLGYDDTAMYYCARDRGGSLAMVVGLDHWGQGTLVTVSS VL: DIQMTQSPTSLSASVGDRVTITCRASQSIGGYLNWYQQNPGKAPKLLIYAASTLQRGVPSRFSGGGSGTDFTLTITSLQPEDFATYYCQQCYSAELTFGGGTKVEIK",In vitro neutralization IC50 (with complement),0.06 µg/mL
same,In vitro neutralization IC50 (without complement),0.09 µg/mL
"RM-2D6 (antibody, IgG1, V domains shown) VH: EVQLVESGGGVVQPGRSLRLSCAASGFMFSSYGMHWVRQAPGKGLEWVAAVSHDGTNDLYADSVKGRFSISRDNSKNTLYLQMNSLRAEDTAVYYCAKTSWARFLEWTFDYWGQGTLVTVSS VL: DIQMTQSPSSLSASVGDRVTITCRASQSINRYLNWYQQKPGKAPKLLIYGASSLQSGVPLRFSGSGSGTDFTLTISSLQPEDFATYYCQQSHSTPTFGQGTRLEIK",In vitro neutralization IC50 (with complement),0.03 µg/mL
same,In vitro neutralization IC50 (without complement),0.23 µg/mL
